# B1: PLAGL1 (parent)
# chain: TKEKKHQCDHCERCFYTRKDVRRH
# Variants of: B1
# Experiment: protein stability index of a GFP-peptide fusion (GPS, HEK-293T) (PSI 1-6); higher = more stable
# Conditions: c terminus: a fixed tail appended
# 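Further: lentivirally expressed fusions sorted by FACS into six bins by GFP to DsRed ratio, PSI derived from sequencing read proportions per bin multiplied by bin number.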
row,Variant,protein stability index
1,TKEKKHQCDHCERCFYTRKDKRRH [V21K],3.88
2,TKEKKHQCDHCERCFYTRKDARRH [V21A],3.68
3,TKEKKHQCDHCERCFYTRKDHRRH [V21H],3.7
4,TKEKKHQCDHCERCFYTRKDLRRH [V21L],3.74
5,TKEKKHQCDHCERCFYTRKDTRRH [V21T],3.34
6,TKEKKHQCDHCERCFYTRKDMRRH [V21M],3.52
7,TKEKKHQCDHCERCFYTRKDRRRH [V21R],3.95
8,TKEKKHQCDHCERCFYTRKDERRH [V21E],3.9
9,TKEKKHQCDHCERCFYTRKDNRRH [V21N],3.54
10,TKEKKHQCDHCERCFYTRKDYRRH [V21Y],3.98
11,TKEKKHQCDHCERCFYTRKDQRRH [V21Q],3.25
12,TKEKKHQCDHCERCFYTRKDGRRH [V21G],3.65
13,TKEKKHQCDHCERCFYTRKDPRRH [V21P],2.97
14,TKEKKHQCDHCERCFYTRKDWRRH [V21W],3.58
15,TKEKKHQCDHCERCFYTRKDDRRH [V21D],3.53
16,TKEKKHQCDHCERCFYTRKDSRRH [V21S],3.01
17,TKEKKHQCDHCERCFYTRKDIRRH [V21I],3.25
18,TKEKKHQCDHCERCFYTRKDFRRH [V21F],3.47
19,TKEKKHQCDHCERCFYTRKDCRRH [V21C],3.85
20,TKEKKHQCDHCERCFYTRKDVRTH [R23T],3.71
21,TKEKKHQCDHCERCFYTRKDVRPH [R23P],4.04
22,TKEKKHQCDHCERCFYTRKDVRNH [R23N],4.01
23,TKEKKHQCDHCERCFYTRKDVRKH [R23K],4.27
24,TKEKKHQCDHCERCFYTRKDVRCH [R23C],3.49

row,Variant,protein stability index
1,TKEKKHQCDHCERCFYTRKDVRDH [R23D],4.49
2,TKEKKHQCDHCERCFYTRKDVRFH [R23F],3.33
3,TKEKKHQCDHCERCFYTRKDVRIH [R23I],3.67
4,TKEKKHQCDHCERCFYTRKDVREH [R23E],4.26
5,TKEKKHQCDHCERCFYTRKDVRYH [R23Y],3.53
6,TKEKKHQCDHCERCFYTRKDVRLH [R23L],3.92
7,TKEKKHQCDHCERCFYTRKDVRVH [R23V],3.08
8,TKEKKHQCDHCERCFYTRKDVRHH [R23H],3.85
9,TKEKKHQCDHCERCFYTRKDVRMH [R23M],3.79
10,TKEKKHQCDHCERCFYTRKDVRQH [R23Q],3.84
11,TKEKKHQCDHCERCFYTRKDVRWH [R23W],3.08
12,TKEKKHQCDHCERCFYTRKDVRGH [R23G],4.31
13,TKEKKHQCDHCERCFYTRKDVRAH [R23A],4.13
14,TKEKKHQCDHCERCFYTRKDVRSH [R23S],3.7
15,TKEKKHQCDHCERCFYTRMDVRRH [K19M],3.06
16,TKEKKHQCDHCERCFYTRYDVRRH [K19Y],3.25
17,TKEKKHQCDHCERCFYTRIDVRRH [K19I],2.52
18,TKEKKHQCDHCERCFYTRDDVRRH [K19D],3.39
19,TKEKKHQCDHCERCFYTRLDVRRH [K19L],2.9
20,TKEKKHQCDHCERCFYTRFDVRRH [K19F],3.05
21,TKEKKHQCDHCERCFYTRQDVRRH [K19Q],3.89
22,TKEKKHQCDHCERCFYTRRDVRRH [K19R],4.12
23,TKEKKHQCDHCERCFYTRTDVRRH [K19T],3.4
24,TKEKKHQCDHCERCFYTRADVRRH [K19A],3.66

row,Variant,protein stability index
1,TKEKKHQCDHCERCFYTRVDVRRH [K19V],2.95
2,TKEKKHQCDHCERCFYTRCDVRRH [K19C],3.22
3,TKEKKHQCDHCERCFYTRNDVRRH [K19N],3.3
4,TKEKKHQCDHCERCFYTRSDVRRH [K19S],3.17
5,TKEKKHQCDHCERCFYTRHDVRRH [K19H],3.55
6,TKEKKHQCDHCERCFYTREDVRRH [K19E],4.03
7,TKEKKHQCDHCERCFYTRPDVRRH [K19P],3.33
8,TKEKKHQCDHCERCFYTRWDVRRH [K19W],3.13
9,TKEKKHQCDHCERCFYTRGDVRRH [K19G],3.52
10,TKEKKHQCDHCERCFYTRKDVLRH [R22L],3.84
11,TKEKKHQCDHCERCFYTRKDVMRH [R22M],3.65
12,TKEKKHQCDHCERCFYTRKDVERH [R22E],4.73
13,TKEKKHQCDHCERCFYTRKDVFRH [R22F],3.51
14,TKEKKHQCDHCERCFYTRKDVYRH [R22Y],3.69
15,TKEKKHQCDHCERCFYTRKDVIRH [R22I],3.48
16,TKEKKHQCDHCERCFYTRKDVDRH [R22D],4.31
17,TKEKKHQCDHCERCFYTRKDVPRH [R22P],3.62
18,TKEKKHQCDHCERCFYTRKDVQRH [R22Q],3.51
19,TKEKKHQCDHCERCFYTRKDVWRH [R22W],3.27
20,TKEKKHQCDHCERCFYTRKDVCRH [R22C],4.07
21,TKEKKHQCDHCERCFYTRKDVARH [R22A],3.54
22,TKEKKHQCDHCERCFYTRKDVKRH [R22K],3.76
23,TKEKKHQCDHCERCFYTRKDVSRH [R22S],3.71
24,TKEKKHQCDHCERCFYTRKDVGRH [R22G],3.61

row,Variant,protein stability index
1,TKEKKHQCDHCERCFYTRKDVVRH [R22V],3.76
2,TKEKKHQCDHCERCFYTRKDVNRH [R22N],4.04
3,TKEKKHQCDHCERCFYTRKDVTRH [R22T],4.04
4,TKEKKHQCDHCERCFYTRKDVHRH [R22H],3.96
5,TKEKKHQCDHCERCFYTRKDVRRW [H24W],3.03
6,TKEKKHQCDHCERCFYTRKDVRRA [H24A],3.79
7,TKEKKHQCDHCERCFYTRKDVRRL [H24L],3.17
8,TKEKKHQCDHCERCFYTRKDVRRI [H24I],3.24
9,TKEKKHQCDHCERCFYTRKDVRRR [H24R],3.37
10,TKEKKHQCDHCERCFYTRKDVRRV [H24V],3.11
11,TKEKKHQCDHCERCFYTRKDVRRG [H24G],3.52
12,TKEKKHQCDHCERCFYTRKDVRRF [H24F],3.06
13,TKEKKHQCDHCERCFYTRKDVRRM [H24M],2.88
14,TKEKKHQCDHCERCFYTRKDVRRY [H24Y],2.79
15,TKEKKHQCDHCERCFYTRKDVRRE [H24E],4.12
16,TKEKKHQCDHCERCFYTRKDVRRC [H24C],3.31
17,TKEKKHQCDHCERCFYTRKDVRRQ [H24Q],3.58
18,TKEKKHQCDHCERCFYTRKDVRRK [H24K],3.62
19,TKEKKHQCDHCERCFYTRKDVRRP [H24P],3.24
20,TKEKKHQCDHCERCFYTRKDVRRN [H24N],2.89
21,TKEKKHQCDHCERCFYTRKDVRRD [H24D],3.84
22,TKEKKHQCDHCERCFYTRKDVRRT [H24T],3.63
23,TKEKKHQCDHCERCFYTRKDVRRS [H24S],3.27

# Source: the supplement of paper PMC10567573
